Assay [1] addresses mEGFP-labelled WASp (reciprocal tagging) (Drosophila). The assay can be described thus: FRET or BRET; FLIM-FRET, pixel-resolution 'Interaction' in the CNS of live Drosophila embryos at hours 15 and 21, and Polarplot estimate of the percentage of donor molecules undergoing FRET (hour not told for the percentages).
For assay [2], the target named is WASp labelled with mCherry at its carboxyl terminus (Drosophila). Description: FRET or BRET; FLIM-FRET (3D frequency-domain FLIM): mean mEGFP donor fluorescence lifetime in a CNS segment of live whole Drosophila embryos at hour 15; both proteins expressed in all neurons under elav-GAL4; baseline lifetime without FRET 2.56 ns; 10-20 embryos for each experiment.
Sequence of WASp labelled with mCherry at its carboxyl terminus (Drosophila) (main, as listed by the source): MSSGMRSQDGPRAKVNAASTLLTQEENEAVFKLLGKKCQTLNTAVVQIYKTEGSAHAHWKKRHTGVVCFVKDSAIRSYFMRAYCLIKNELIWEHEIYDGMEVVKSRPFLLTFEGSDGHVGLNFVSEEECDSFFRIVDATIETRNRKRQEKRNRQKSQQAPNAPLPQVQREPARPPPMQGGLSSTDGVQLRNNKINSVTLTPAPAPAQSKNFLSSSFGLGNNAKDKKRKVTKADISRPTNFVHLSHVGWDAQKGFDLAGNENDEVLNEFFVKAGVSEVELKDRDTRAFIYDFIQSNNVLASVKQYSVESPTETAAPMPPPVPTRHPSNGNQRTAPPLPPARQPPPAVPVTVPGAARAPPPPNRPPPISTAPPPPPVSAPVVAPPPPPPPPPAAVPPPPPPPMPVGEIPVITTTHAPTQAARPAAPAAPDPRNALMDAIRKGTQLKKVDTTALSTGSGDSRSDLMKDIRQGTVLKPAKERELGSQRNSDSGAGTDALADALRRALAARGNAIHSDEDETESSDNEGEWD
Assay [3] concerns the target mCherry::WASp (Wiskott-Aldrich Syndrome protein labelled with mCherry at its amino terminus) (Drosophila). The assay is described as above.
Assay [4] shares this target. Description: FRET or BRET; FLIM-FRET, pixel-resolution 'Interaction' in the CNS of live Drosophila embryos at hours 15 and 21, and Polarplot estimate of the percentage of donor molecules undergoing FRET (hour not told for the percentages).

Sequence of mCherry::WASp (Wiskott-Aldrich Syndrome protein labelled with mCherry at its amino terminus) (Drosophila) (main, as listed by the source): as above
Sequence of mEGFP-labelled WASp (reciprocal tagging) (Drosophila) (main, as listed by the source): as above

Take “mCherry-labelled Cdc42 (reciprocal tagging) (from UniProt P40793 1-191) (natural protein)”: the fraction of WASp interacting with Cdc42 in assay [1] is 30%.
Consider “mEGFP::Cdc42 (cell division control protein 42 homolog labelled with mEGFP) (from UniProt P40793 1-191) (natural protein)”, for which the mean donor (mEGFP) fluorescence lifetime in assay [2] is 2.44 ns; in assay [3] it was 2.45 ns. In addition, in assay [4], the fraction of Cdc42 interacting with WASp was 10%.

(Values after PMC3929599.)
